{"source": "patent US20180086821A1", "about": "(MAYO FOUNDATION FOR MEDICAL EDUCATION AND RESEARCH, published 2018)", "key": {"[1]": {"target": "T1, mouse albumin (mouse, UniProt P07724 25-608)", "T1 construct": "Bought from Sigma", "experiment": "direct ELISA, antigen coated at 5 µg/ml", "experimental": "(§1) Human RBC spectrin, bovine myosin (heavy chain), mouse albumin, mouse hemoglobin, mouse transferrin, hen egg lysozyme, rabbit actin, rabbit myelin basic protein, and keyhole limpet hemocyanin (KLH) were purchased from Sigma. Proteins were tested for purity by SDS-polyacrylamide gel electrophoresis. […] Protein antigens were used at 5 μg/ml, and hapten was used at 2 μM. The proteins and hapten-BSA antigens were coated onto polystyrene or polyvinylchloride microtiter plates in 0.1 M carbonate buffer, pH 9.5, for 18 hours at 4° C. Coated plates were blocked with PBS containing 5% nonfat dry mild and 0.05% Tween 20 for 2 hours at room temperature, and incubated with mAbs diluted in blocking buffer (2 μg/ml) for 4 hours at room temperature. […] Bound IgM was detected with biotinylated goat anti-mouse IgM (p chain specific; Jackson Immunoresearch, West Grove, Pa.) followed by alkaline phosphatase conjugated to streptavidin, with p-nitrophenylphosphate as the chromogenic substrate. Absorbance was determined at 405 nm."}, "[2]": {"target": "T2, mouse transferrin (mouse, UniProt Q921I1 20-697)", "T2 construct": "Bought from Sigma", "experiment": "direct ELISA, antigen coated at 5 µg/ml", "experimental": "as §1"}, "[3]": {"target": "T3, human RBC spectrin (human, UniProt P02549 1-2419; P11277 2-2137)", "T3 construct": "Bought from Sigma; also called human erythrocyte spectrin", "T3 sequence (P02549 whole entry, chain 1 of 2)": "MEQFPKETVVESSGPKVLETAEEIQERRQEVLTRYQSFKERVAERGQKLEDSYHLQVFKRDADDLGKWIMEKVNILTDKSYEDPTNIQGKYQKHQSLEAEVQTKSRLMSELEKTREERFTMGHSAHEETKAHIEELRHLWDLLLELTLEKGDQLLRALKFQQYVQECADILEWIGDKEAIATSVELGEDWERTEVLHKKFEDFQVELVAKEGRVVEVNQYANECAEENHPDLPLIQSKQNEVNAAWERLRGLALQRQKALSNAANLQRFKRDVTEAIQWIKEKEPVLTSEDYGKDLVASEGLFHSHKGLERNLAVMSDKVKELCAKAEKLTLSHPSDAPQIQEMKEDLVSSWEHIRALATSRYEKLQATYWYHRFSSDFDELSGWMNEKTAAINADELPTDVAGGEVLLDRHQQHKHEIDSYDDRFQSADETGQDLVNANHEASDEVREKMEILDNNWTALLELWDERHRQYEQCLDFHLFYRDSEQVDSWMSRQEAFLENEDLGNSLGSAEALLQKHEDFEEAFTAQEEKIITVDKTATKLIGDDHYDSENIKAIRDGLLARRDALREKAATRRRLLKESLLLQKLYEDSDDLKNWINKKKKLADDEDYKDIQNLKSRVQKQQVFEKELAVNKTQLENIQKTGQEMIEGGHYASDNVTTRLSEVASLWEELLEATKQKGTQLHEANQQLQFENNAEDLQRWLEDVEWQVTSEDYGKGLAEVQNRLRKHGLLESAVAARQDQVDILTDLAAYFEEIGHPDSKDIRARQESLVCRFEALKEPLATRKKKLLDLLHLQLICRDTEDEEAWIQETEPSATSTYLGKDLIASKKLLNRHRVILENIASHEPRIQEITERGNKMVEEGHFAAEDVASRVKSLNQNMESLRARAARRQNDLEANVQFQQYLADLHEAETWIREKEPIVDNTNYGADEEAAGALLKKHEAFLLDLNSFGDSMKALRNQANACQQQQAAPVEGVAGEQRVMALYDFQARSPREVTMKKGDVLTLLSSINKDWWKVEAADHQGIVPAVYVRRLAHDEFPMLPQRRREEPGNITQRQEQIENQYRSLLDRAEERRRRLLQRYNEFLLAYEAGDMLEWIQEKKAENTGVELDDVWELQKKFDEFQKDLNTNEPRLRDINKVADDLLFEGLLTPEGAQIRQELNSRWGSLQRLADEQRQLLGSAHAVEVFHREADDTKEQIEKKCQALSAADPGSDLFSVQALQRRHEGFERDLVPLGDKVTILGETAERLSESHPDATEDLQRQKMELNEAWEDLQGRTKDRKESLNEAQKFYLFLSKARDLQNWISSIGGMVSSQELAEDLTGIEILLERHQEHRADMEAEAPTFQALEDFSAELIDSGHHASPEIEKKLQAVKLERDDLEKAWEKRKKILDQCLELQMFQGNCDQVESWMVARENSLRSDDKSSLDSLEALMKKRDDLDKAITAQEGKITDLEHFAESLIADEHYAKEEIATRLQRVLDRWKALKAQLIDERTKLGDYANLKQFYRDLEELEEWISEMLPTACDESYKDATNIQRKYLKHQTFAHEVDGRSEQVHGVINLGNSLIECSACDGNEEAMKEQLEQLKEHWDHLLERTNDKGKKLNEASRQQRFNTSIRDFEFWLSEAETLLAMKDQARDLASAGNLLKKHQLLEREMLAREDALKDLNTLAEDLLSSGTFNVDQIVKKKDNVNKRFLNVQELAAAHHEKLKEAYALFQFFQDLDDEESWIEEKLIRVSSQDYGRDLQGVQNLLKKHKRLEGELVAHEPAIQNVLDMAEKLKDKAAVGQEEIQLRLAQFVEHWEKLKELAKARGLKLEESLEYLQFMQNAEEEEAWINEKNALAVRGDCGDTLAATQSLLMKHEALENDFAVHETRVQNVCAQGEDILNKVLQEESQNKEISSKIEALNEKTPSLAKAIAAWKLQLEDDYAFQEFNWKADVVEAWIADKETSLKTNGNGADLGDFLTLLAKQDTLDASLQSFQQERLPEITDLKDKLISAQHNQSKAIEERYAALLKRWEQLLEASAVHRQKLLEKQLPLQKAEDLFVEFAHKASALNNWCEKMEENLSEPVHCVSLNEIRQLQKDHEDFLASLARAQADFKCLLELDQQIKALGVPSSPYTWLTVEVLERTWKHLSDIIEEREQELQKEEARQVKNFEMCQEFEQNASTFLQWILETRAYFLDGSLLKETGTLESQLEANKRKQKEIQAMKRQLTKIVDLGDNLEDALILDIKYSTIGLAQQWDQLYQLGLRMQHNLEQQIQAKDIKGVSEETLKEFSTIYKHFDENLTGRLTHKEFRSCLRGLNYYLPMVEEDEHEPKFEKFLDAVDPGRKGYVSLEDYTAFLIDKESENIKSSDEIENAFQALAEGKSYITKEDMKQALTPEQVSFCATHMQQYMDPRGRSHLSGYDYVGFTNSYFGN", "T3 sequence (P11277 2-2137, chain 2 of 2)": "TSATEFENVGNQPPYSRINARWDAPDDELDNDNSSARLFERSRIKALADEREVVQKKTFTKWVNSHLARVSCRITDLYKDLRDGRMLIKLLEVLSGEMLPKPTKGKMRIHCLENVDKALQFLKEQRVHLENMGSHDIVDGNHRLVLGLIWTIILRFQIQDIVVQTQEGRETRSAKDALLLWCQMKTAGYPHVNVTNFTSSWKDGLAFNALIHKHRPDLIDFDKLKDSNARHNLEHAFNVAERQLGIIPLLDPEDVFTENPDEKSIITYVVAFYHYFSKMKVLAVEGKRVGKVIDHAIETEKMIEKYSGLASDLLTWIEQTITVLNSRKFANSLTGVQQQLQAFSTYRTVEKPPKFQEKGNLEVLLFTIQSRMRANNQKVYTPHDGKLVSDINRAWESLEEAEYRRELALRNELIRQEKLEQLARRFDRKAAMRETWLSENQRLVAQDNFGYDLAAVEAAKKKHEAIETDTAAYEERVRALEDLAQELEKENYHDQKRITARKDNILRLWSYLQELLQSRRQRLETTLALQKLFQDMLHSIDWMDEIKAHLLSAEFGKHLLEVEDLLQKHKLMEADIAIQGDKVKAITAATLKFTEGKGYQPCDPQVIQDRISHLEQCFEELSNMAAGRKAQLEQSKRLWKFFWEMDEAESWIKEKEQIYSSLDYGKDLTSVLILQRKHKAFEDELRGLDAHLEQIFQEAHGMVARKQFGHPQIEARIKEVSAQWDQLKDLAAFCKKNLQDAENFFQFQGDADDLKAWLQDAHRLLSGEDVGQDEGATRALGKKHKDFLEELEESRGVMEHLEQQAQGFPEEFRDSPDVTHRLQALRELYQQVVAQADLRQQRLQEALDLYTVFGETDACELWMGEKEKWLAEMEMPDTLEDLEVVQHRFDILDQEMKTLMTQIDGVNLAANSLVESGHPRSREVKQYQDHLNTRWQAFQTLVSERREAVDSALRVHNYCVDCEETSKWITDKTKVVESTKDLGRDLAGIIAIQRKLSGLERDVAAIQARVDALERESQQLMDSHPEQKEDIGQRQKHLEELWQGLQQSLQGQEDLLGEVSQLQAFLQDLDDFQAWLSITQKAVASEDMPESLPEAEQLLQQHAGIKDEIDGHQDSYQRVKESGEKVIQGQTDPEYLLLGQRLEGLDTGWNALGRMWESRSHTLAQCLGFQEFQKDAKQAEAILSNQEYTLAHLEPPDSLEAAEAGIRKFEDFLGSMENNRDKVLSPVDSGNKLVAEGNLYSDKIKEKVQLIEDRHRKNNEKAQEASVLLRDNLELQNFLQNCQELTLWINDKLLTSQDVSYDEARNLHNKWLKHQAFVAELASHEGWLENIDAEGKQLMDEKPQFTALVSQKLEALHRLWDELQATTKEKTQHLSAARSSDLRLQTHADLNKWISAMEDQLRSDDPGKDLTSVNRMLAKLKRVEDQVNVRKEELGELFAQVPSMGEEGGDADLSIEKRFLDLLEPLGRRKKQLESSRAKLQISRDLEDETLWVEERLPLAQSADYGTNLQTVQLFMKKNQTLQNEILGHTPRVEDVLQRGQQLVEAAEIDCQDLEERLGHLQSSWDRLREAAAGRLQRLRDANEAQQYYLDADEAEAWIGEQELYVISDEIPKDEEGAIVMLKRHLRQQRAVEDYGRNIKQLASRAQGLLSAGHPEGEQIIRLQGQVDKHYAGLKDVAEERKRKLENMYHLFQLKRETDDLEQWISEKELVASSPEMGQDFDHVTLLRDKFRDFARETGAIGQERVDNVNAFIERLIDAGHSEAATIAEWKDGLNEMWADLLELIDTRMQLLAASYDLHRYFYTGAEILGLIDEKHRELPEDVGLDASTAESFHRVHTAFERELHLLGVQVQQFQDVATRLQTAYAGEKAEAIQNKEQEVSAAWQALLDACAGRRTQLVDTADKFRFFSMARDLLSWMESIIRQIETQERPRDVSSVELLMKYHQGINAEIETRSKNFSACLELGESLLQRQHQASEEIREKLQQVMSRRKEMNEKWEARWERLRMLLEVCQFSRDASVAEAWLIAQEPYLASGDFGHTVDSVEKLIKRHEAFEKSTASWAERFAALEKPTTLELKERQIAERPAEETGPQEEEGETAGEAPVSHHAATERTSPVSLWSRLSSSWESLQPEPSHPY", "experiment": "direct ELISA, antigen coated at 5 µg/ml", "experimental": "as §1"}, "[4]": {"target": "T4, hen egg lysozyme (hen (chicken), UniProt P00698 19-147)", "T4 construct": "Bought from Sigma; also called HEL", "T4 sequence (P00698 19-147)": "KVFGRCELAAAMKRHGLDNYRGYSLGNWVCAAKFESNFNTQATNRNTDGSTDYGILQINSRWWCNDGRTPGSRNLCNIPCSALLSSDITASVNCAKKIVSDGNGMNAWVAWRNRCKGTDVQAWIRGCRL", "experiment": "direct ELISA, antigen coated at 5 µg/ml", "experimental": "as §1"}, "[5]": {"target": "T5, mouse hemoglobin (mouse, UniProt P01942 2-142; P02088 2-147)", "T5 construct": "Bought from Sigma; also called Mo Hb", "T5 sequence (P01942 2-142 limits assumed, chain 1 of 2)": "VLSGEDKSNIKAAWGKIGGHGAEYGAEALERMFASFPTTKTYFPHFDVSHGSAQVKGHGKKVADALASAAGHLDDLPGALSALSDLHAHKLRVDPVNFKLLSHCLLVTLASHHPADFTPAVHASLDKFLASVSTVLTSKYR", "T5 sequence (P02088 2-147 limits assumed, chain 2 of 2)": "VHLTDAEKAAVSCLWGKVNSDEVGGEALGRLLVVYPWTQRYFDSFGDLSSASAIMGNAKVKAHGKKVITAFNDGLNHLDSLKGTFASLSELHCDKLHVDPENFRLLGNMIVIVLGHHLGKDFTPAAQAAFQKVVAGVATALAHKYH", "experiment": "direct ELISA, antigen coated at 5 µg/ml", "experimental": "as §1"}, "[6]": {"target": "T6, rabbit myelin basic protein (rabbit, UniProt P25274 1-168)", "T6 construct": "Bought from Sigma; also called rabbit MBP", "experiment": "direct ELISA, antigen coated at 5 µg/ml", "experimental": "as §1"}, "[7]": {"target": "T7, bovine serum albumin (BSA) (bovine, UniProt P02769 25-607)", "T7 construct": "Carrier alone, without hapten; also called carrier protein BSA", "experiment": "solid-phase ELISA"}, "[8]": {"target": "T3, human RBC spectrin", "experiment": "direct ELISA, mAb at 2 µg/ml", "experimental": "as §1"}}}
{"binder": "mAb A2B5 (antibody, mouse IgM, V domains shown, Mouse IgM kappa) VH: EVKLVESGGGLVQPGGSLRLSCATSGFTFSDFYMEWVRQPPGKRLEWIAASRNKANDYTTEYSASVKGRFIVSRDTSQSILYLQMNALRAEDTAIYYCARDARQLGLPAWFAYWGQGTLVTVSA VL: QIVLTQSPAIMSASPGEKVTISCSASSSVSYMYWYQQKPGSSPKPWIYRTSNLASGVPARFSGSGSGTSYSLTISSMEAEDAATYYCQQYHSYPLTFGAGTKLELKR", "values": [{"measurement": "binding result", "setting": "[1]", "result": "no binding (tested: mAbs at 2 µg/ml)"}, {"measurement": "binding result", "setting": "[2]", "result": "no binding (tested: mAbs at 2 µg/ml)"}, {"measurement": "binding result", "setting": "[3]", "result": "no binding (tested: mAbs at 2 µg/ml)"}, {"measurement": "binding result", "setting": "[4]", "result": "no binding (tested: mAbs at 2 µg/ml)"}, {"measurement": "binding result", "setting": "[5]", "result": "no binding (tested: mAbs at 2 µg/ml)"}, {"measurement": "binding result", "setting": "[6]", "result": "no binding (tested: mAbs at 2 µg/ml)"}]}
{"binder": "monoclonal antibody SCH94.03 (antibody, V domains shown) VH: QVQLQQPGTELVKPGASVKLSCKASGYTFTSYWMHWVKQRPGQGLEWIGNINPSNGGTNYNEKFKSKATLTVDKSSSTAYMQLSSLTSEDSAVYYCARRAPYYGSRNFDYWGQGTTLTVSS VL: DIQMTQTTSSLSASLGDRVTISCRASQDISNYLNWYQQKPDGTVKLLIYYTSRLHSGVPSRFSGSGSGTDYSLTISNLEQEDIATYFCQQGNTLPWTFGGGTKLEIKR", "values": [{"measurement": "binding result", "setting": "[7]", "result": "no binding"}]}
{"binder": "mAb O1 (antibody, V domains shown, Mouse IgM kappa; Entries may include the leader peptide; The hybridoma also makes the MOPC21 kappa chain; also called 01) VH: QVQLQQSGPELVKPGALVKISCKASGYTFTSYDINWVKQRPGQGLEWIGWIYPGDGSTKYNEKFKGKATLTADKSSSTAYMQLSSLTSENSAVYFCARGARFYWYFDVWGAGTTVTVSS VL: DVQITQSPSYLAASPGETITINCRASKSISKYLAWYQEKPGKTNKLLIYSGSTLQSGIPSRFSGSGSGTDFTLTISSLEPEDFAMYYCQQHNEYPYTFGGGTKLEIKR", "values": [{"measurement": "binding result", "setting": "[8]", "result": "binds"}]}
